This is an account of results in patent US20190153113A1, “CD39 VASCULAR ISOFORM TARGETING AGENTS” (INNATE PHARMA, priority 2015, published 2019).

Data set [1] has as its target T1, Human CD39 (vascular CD39, NTPDase1, ENTPD1) expressed at the cell surface (human, UniProt P49961 1-510).
T1 sequence: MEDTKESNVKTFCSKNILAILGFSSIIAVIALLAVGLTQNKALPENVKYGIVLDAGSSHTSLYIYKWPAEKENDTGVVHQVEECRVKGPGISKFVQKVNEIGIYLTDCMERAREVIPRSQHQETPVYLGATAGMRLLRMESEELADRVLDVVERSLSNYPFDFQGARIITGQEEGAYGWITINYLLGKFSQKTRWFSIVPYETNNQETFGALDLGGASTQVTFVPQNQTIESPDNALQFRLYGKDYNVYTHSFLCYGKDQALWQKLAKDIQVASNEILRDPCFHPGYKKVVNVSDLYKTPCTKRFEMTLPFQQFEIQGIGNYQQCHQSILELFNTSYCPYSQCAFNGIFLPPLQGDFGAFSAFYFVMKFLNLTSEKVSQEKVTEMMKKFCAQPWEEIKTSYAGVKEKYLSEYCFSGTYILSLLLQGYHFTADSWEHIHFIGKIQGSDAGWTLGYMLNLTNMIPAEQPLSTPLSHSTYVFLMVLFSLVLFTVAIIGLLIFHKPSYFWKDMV
The experiment in a line: cell-based or functional assay.

Data set [2] has as its target T2, CD39 mutant 15 (K87A, E100A, D107A) (human, UniProt P49961 1-510).
T2 construct: Transfected in HEK293T cells
T2 chain: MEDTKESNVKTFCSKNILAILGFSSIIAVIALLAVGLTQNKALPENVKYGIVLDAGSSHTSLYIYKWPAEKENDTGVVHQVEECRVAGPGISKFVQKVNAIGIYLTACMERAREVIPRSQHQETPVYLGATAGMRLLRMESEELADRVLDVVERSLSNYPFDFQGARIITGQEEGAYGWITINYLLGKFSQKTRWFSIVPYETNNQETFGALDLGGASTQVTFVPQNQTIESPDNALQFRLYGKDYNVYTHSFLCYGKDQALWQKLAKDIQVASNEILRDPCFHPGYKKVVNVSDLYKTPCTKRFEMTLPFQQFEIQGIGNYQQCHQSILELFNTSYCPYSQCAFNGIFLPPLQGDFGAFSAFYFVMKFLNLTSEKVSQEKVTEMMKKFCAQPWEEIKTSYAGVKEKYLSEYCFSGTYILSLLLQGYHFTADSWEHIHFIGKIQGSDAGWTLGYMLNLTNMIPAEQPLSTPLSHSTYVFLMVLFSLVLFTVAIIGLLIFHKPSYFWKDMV
The experiment in a line: flow cytometry, HEK293T cells transfected with mutant 15.

Data set [3] addresses T3, CD39 mutant 4 (D150A, E153S, R154A, S157K, N158A, L278F) (human, UniProt P49961 1-510).
T3 construct: Transfected in HEK293T cells
T3 chain: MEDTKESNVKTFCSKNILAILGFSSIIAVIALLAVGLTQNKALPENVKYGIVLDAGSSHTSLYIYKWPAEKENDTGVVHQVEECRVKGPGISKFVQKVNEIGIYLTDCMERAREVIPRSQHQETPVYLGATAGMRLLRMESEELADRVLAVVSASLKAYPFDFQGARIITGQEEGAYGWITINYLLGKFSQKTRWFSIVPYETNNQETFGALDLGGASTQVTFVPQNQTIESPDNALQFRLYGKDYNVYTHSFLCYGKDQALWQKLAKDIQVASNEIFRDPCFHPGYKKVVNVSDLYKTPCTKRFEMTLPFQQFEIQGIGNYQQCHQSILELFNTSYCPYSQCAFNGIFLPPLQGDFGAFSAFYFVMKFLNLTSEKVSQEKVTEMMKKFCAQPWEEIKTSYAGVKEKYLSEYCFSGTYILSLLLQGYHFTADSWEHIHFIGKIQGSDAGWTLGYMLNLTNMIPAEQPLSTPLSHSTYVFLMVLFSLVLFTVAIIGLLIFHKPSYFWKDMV
The experiment in a line: flow cytometry, HEK293T cells transfected with mutant 4.

Data set [4] in a line: Stability in reference formulation, thermal shift stability assay (aggregation temperature). It counts as physicochemical. Conditions: in words. As to the method: All antibodies were tested for stability in the following reference formulation at a concentration of approximatively 7 mg/mL: pH 6.0; histidine buffer (10 mM); sucrose (200 mM); NaCl (50 mM); Polysorbate 80 (PS80) (0.2 g/L). […] So for this study the concentration is set at 0.2 g/L.
The stability of the formulations was monitored in two storage conditions (at +5° C.±3° C. and at +40±3° C. For each study, 3 times point were performed: TO, T15D (15 days) and T1M (1 month). A freeze thaw (F/T) and a thermal shift stability assay (TSSA) were conducted for the format comparison. To perform F/T cycles, the samples were frozen at least 2 hours at −20° C. and thawed at least 1 hour at room temperature, the F/T cycle is repeated three times and samples are tested 24h after the last Freeze/Thaw cycle. At each time point, the following tests were performed: • Particulate Matter (MFI) • Visual Inspection (Appearance) • Impurities (SE-HPLC) • Turbidity (400 nm) • Protein Concentration (280 nm) (performed with Nanodrop, Thermo Fisher Scientific Inc.)
Aggregation temperature is correlated with the intrinsic stability. The higher the TAgg, the higher the stability of the protein. […]

B1: Antibody I-391, Fc silent recombinant chimeric human IgG1 with heavy chain N297Q mutation (antibody, V domains shown)
VH: QIQLVQSGPELKKPGETVKISCKASGYTFRNYGMNWVKQAPGKGLKWMGWINTYTGEPTYADDFKGRFAFSLATSASTAYLQISNLKNEDTATYFCARKAYYGSNYYFDYWGQGTTLTVSS
VL: DIVMTQSHKFMSTSVGDRVSITCKASQDVSTAVAWYQQKPGQSPKLLIYSASYRYTGVPDRFTGSGSGTDFTFTISTVQAEDLAVYYCQQHYTTPPYTFGGGTKLEIKR
Take B1: the “EC50 (inhibition of 50% of the enzymatic activity of CD39 expressed by 100,000 Ramos cells), AMP generated, Maldi TOF” value in data set [1] amounted to 1.2 nM. The binding result in data set [2] and in data set [3] was “binds” each time.

B2: I-392: anti-CD39 antibody, VH SEQ ID NO: 8 and VL SEQ ID NO: 9, chimeric human IgG1 with N297Q mutation (antibody, V domains shown)
VH: QIQLVQSGPEVKKPRETVKISCKASGYTFTHYGMNWVKQAPGKGLKWMGWINTYTGEPTYADDFKGRFAFSLEASASTAYLQINNLKNEDTATYFCARRRYEGNYVFYYFDYWGQGTTLTVSS
VL: DIQMTQSPASLSASVGETVTITCRASENIYSYFSWYQQKQGKSPQLLVYTAKTLAEGVPSRFSGSGSGTQFSLKINSLQPEDFGSYYCQHHYVTPYTFGGGTKLEIK
With B2, in data set [4], the “stability (aggregation)” value is listed as “relatively low inherent stability”.
